Assay [1] deals with T1, Nogo-66 receptor (NgR), full-length, expressed on transfected cells (human, UniProt Q9BZR6 27-447).
T1 construct: whole, on cells; The species of the NgR on the CHO cells is not restated; also called Nogo receptor
T1 sequence (looked up): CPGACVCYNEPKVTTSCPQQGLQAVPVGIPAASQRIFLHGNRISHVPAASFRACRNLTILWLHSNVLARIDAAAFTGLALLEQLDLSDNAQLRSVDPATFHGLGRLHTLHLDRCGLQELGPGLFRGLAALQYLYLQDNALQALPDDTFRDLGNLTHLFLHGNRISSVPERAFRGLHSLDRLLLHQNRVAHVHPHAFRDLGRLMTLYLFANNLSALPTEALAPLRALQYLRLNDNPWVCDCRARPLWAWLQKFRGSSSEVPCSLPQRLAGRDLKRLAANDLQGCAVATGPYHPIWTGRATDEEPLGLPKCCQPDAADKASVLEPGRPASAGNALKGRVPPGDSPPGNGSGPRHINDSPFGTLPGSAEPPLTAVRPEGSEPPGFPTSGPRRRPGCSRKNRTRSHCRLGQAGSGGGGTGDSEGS
As to the kind of experiment: saturation analysis of AP-OMgp binding to N2A cells transfected with NgR cDNA, bound AP activity. The text has this: (§1) We next took advantage of AP-OMgp binding to identify cell surface OMgp-binding proteins by expression cloning (He & Tessier-Lavigne, 1997; Flanagan and Cheng, 2000; Fournier et al., 2001). Pools of a complementary DNA expression library from adult human brain, representing approximately 250,000 independent clones, were transfected into COS-7 cells and screened for the presence of cells that bound AP-OMgp. […] After screening several rounds of subpools, we isolated two cDNAs that encoded the OMgp-binding proteins. […] We next performed coimmunoprecipitation experiments by incubating GST or a GST-NgR fusion protein containing the entire extracellular domain of NgR (GST-NgR) with AP or AP-OMgp.
Cell surface binding and expression cloning were performed as described previously (He and Tessier-Lavigne, 1997). To detect AP-OMgp binding, cultures were washed with binding buffer (Hanks balanced salt solution containing 20 mM Hepes, pH 7.5, and 1 mg/ml bovine serum albumin (BSA)). The plates were then incubated with AP-OMgp-containing binding buffer for 75 min at room temperature. After extensive washing and heat inactivation, bound AP fusion proteins were detected by AP staining using NBT and BCIP as substrate. For saturation analysis, we disrupted cells and detected bound AP fusion proteins using […] as substrate.

For assay [2], the target named is T2, AP (UniProt P05187 23-511, limits assumed).
T2 construct: Control in the coimmunoprecipitation; also called alkaline phosphatase; AP alone
As to the kind of experiment: coimmunoprecipitation of GST or GST-NgR with AP or AP-OMgp.
Excerpt: as §1

T2 sequence (P05187 23-511 limits assumed): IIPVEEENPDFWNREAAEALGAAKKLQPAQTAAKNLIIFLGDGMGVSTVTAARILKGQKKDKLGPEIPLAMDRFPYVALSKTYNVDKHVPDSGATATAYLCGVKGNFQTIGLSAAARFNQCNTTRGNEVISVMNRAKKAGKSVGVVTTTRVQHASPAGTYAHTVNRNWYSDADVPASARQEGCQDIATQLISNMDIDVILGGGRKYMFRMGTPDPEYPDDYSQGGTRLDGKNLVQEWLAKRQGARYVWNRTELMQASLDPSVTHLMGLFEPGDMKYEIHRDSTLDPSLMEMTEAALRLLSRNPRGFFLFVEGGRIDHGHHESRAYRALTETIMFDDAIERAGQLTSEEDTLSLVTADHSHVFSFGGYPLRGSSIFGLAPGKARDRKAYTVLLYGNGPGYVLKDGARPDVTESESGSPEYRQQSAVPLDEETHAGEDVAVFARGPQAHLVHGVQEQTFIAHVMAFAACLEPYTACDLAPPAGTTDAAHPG

B1: AP-OMgp fusion protein (ligand, mouse, UniProt Q63912 25-417, looked up)
chain: ICPLQCTCTERHRHVDCSGRNLTTLPPGLQENIIHLNLSYNHFTDLHNQLTPYTNLRTLDISNNRLESLPAQLPRSLWNMSAANNNIKLLDKSDTAYQWNLKYLDVSKNMLEKVVLIKNTLRSLEVLNLSSNKLWTVPTNMPSKLHIVDLSNNSLTQILPGTLINLTNLTHLYLHNNKFTFIPEQSFDQLLQLQEITLHNNRWSCDHKQNITYLLKWVMETKAHVIGTPCSKQVSSLKEQSMYPTPPGFTSSLFTMSEMQTVDTINSLSMVTQPKVTKTPKQYRGKETTFGVTLSKDTTFSSTDRAVVAYPEDTPTEMTNSHEAAAATLTIHLQDGMSSNASLTSATKSPPSPVTLSIARGMPNNFSEMPRQSTTLNLRREETTANGNTRPPS
notes: Secreted from COS-7 cells and purified on nickel-agarose; about 180 kDa; The order of the parts follows the name AP-OMgp; not shown: alkaline phosphatase (AP) reporter of expression vector AP-5 (Flanagan and Cheng, 2000)
In general, Kd refers to the concentration at which binding is half-saturated. Read a high Kd as lower affinity. B1: in assay [1], the Kd worked out at 5 nM.

B2: GST-NgR fusion protein containing the entire extracellular domain of NgR (receptor, UniProt Q9BZR6 27-447, looked up)
chain: CPGACVCYNEPKVTTSCPQQGLQAVPVGIPAASQRIFLHGNRISHVPAASFRACRNLTILWLHSNVLARIDAAAFTGLALLEQLDLSDNAQLRSVDPATFHGLGRLHTLHLDRCGLQELGPGLFRGLAALQYLYLQDNALQALPDDTFRDLGNLTHLFLHGNRISSVPERAFRGLHSLDRLLLHQNRVAHVHPHAFRDLGRLMTLYLFANNLSALPTEALAPLRALQYLRLNDNPWVCDCRARPLWAWLQKFRGSSSEVPCSLPQRLAGRDLKRLAANDLQGCAVATGPYHPIWTGRATDEEPLGLPKCCQPDAADKASVLEPGRPASAGNALKGRVPPGDSPPGNGSGPRHINDSPFGTLPGSAEPPLTAVRPEGSEPPGFPTSGPRRRPGCSRKNRTRSHCRLGQAGSGGGGTGDSEGS
notes: extracellular domain; not shown: glutathione S-transferase (GST) fusion partner
For B2, the binding result in assay [2] is “no binding”.

Source of the values: patent US20030113325A1 (CHILDREN S MEDICAL CENTER, published 2003).
